One test concerns the target T1, LSR α′ (Homo sapiens, UniProt Q86X29).
T1 construct: The full-length LSR α, α′, and β clones were reconstructed in pTracer-CMV2 vector; expressed in transfected cells; host or cells: CHO-K1 (transient with Fugene)
T1 sequence (Q86X29 1-630 isoform Q86X29-4): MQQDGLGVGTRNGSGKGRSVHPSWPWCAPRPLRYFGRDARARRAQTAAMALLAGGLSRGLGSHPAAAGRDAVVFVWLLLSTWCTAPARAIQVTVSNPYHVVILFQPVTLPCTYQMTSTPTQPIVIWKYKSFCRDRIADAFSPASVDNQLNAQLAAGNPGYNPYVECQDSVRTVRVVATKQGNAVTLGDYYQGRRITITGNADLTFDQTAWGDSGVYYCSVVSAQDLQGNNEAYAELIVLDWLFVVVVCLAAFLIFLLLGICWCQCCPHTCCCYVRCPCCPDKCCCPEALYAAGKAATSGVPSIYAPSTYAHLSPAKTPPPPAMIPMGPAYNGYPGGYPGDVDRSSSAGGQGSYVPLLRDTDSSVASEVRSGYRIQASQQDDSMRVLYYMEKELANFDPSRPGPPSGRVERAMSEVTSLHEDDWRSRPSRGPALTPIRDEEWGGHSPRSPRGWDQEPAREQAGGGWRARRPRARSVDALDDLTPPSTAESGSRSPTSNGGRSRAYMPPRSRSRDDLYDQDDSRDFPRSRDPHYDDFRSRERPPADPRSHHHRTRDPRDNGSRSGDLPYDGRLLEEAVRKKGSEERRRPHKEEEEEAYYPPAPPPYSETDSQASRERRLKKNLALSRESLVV
Put plainly: 125I-leptin binding, uptake and degradation in CHO-K1 cells transfected with LSR α′. The test is classed as cell-based. How it is done: FIGS. 3A, 3B, 3C, and 3D show the effect of LSR subunit transfection on leptin binding and degradation in CHO-K1 cells. For FIG. 3A, CHO-K1 cells were transfected with increasing concentrations of the α, (□), α′ (▪) or β (◯) LSR plasmid, or vector alone (●) using Fugene transfection reagent. After 48 h, the cells were washed once in PBS and incubated at 37° C. for 2 h with 10 ng/mL of ^125I-leptin in DMEM containing 0.2% (w/v) BSA, 2 mM CaCl2 and 5 mM HEPES, pH 7.4 (Buffer A). The monolayers were washed and lysed with 0.1 N NaOH containing 0.24 mM EDTA, and the lysates were counted. The results are shown as the amount of cell-associated ^125I-leptin. For FIG. 3B, lysates were prepared from CHO-K1 wild type, stable transfectants of vector or LSR α′ subunit, and PLC, and separated on a 10% SDS-polyacrylamide gel under denaturing and reduced conditions. After transfer to nitrocellulose, Western blots were performed using anti-LSR 170 antibody (can also be done with the human equivalent, 93A). Northern blots were done to detect LSR mRNA in CHO-K1 wild-type versus PLC. RT-PCR analysis was also done in CHO-K1 as compared to PLC. For FIGS. 3C and 3D, confluent monolayers of stable-transfected cell lines expressing LSR α′ subunit (▪) or vector alone (●) were washed once in PBS and incubated at 37° C. for 2 h with increasing concentrations of ^125I-leptin in Buffer A. The amount of cell-associated (FIG. 3C) and degraded (FIG. 3D) ^125I-leptin was then measured as described herein. Results are shown as the mean of triplicate determinations.
CHO-K1 cells were plated at a density of 300,000 cells/36 mm dish the day before transfection. After 24 h, plasmid preincubated with Fugene transfection reagent was added to the cells, which were further incubated at 37° C. Cells were used 48 h after transfection as described in the Brief Description of the Figures.
Stable transfectants were prepared from CHO-K1 cells using Superfect according to the manufacturer's instructions. After introduction of the plasmid into the cell with Superfect, the cells were grown in the presence of 750 μg/mL zeocin. After elimination of untransfected cells, the antibiotic concentration was reduced to 500 μg/mL. Clones were isolated using cloning cylinders, and maintained in tissue culture media containing 100 μg/mL zeocin.
To determine which of the LSR subunits is responsible for leptin binding, CHO-K1 cells were transiently transfected with increasing concentrations of each of the 3 human LSR plasmids (FIG. 3A). CHO-K1 cells were selected because they had the lowest level of endogenous LSR expression of the different cell lines tested. This level is far lower than that of a human hepatocyte cell line (PLC) used to systematically characterize human LSR activity (FIG. 3B). […]

The subject of a further test is rat LSR. Put plainly: Ligand blot of 125I-leptin on partially purified rat LSR. Type of test: binding. The note with it: 200 ng/mL 125I-leptin. How it is done: Aliquots (72 μg) of partially purified rat liver LSR were separated on a 4%-12% SDS-gradient polyacrylamide gel, and transferred to nitrocellulose as described previously (Yen F. T., Masson M., Clossais-Besnard N., Andre P., Grosset J. M., Bougueleret L., Dumas J. B., Guerassimenko, O., and Bihain B. E. (1999). J Biol Chem 274, 13390-13398) a gel strip stained with Coomassie blue is shown in lane 1. The nitrocellulose strips were washed, blocked, and incubated with anti-rat LSR protein antiserum (1:1000 dilution) (lane 2), or with 200 ng/mL ^125I-leptin (lane 3). The strips were washed and bands were detected as described herein. Image analysis of lane 3 was performed on a Phosphorimager (Molecular Dynamics).
Partially purified rat LSR (240 kDa band complex) was obtained as described previously (Yen F. T., Masson M., Clossais-Besnard N., Andre P., Grosset J. M., Bougueleret L., […] Dumas J. B., Guerassimenko, O., and Bihain B. E. (1999). J Biol Chem 274, 13390-13398.) The band was separated on non-denaturing 4-12% gradient SDS polyacrylamide gel, and was transferred to nitrocellulose by semi-dry transfer (Biorad, 18 V, […]). […]

Regarding “leptin: plasma protein of 16 kDa produced by adipocytes; recombinant human or mouse leptin, species depends on the experiment”, the Kd in the test with LSR α′ (CHO-K1 cells stably expressing LSR α′, Lineweaver-Burk transformation, read-out: estimated Kd of leptin binding) is 1.3 nM. For the same substance, the “amount of 125I-leptin degraded as share of that bound and internalized by the cells” value with LSR α′ (CHO-K1 cells transfected with LSR α′) came to 16%. For the same substance, in the test with LSR α′ (LSR α′ Kd versus Ob-R Kd), the “Kd relative to that of the Ob-R” value is listed as ~2 fold. Moreover, the “binding of leptin to CHO-K1 cells” value with LSR α′ (transient transfection with LSR α′ plasmid, 10 ng/mL 125I-leptin, 2 h 37° C.) is listed as “increased”. Besides, the “binding of 125I-leptin to partially purified rat LSR multimeric complexes” value in the test with rat LSR was “bound”.

These data come from patent US7470669B2, “Isolated polypeptide comprising a leptin fragment” (Serono Genetics Institute, S.A., priority 1999, dated 2008).
